Experimental data: US20080187980A1, “Method for identifying potential agonists or antagonists using the three-dimensional structure of caspase-7” (Vertex Pharmaceuticals Incorporated, priority 1999, published 2008)

Columns and labels:
group III caspases = conditions: cited from earlier work
caspase-1 = biological target: T1, caspase-1 (Homo sapiens, UniProt P29466); conditions: cited from earlier work; for Ki: reported, Garcia-Calvo et al. 1998
T1 sequence (P29466 120-297 limits assumed): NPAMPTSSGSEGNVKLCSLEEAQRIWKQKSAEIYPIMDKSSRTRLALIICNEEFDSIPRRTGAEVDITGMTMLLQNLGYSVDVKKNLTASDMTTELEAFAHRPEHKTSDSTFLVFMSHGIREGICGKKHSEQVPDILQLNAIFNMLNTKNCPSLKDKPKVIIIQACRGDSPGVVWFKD
T1 sequence (P29466 317-404 limits assumed): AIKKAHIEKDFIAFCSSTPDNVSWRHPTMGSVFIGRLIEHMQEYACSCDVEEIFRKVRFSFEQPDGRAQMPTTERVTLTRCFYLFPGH

caspase-8 = caspase-8 (Homo sapiens, UniProt Q14790); conditions: reported, Garcia-Calvo et al. 1998; cited from earlier work
caspase-8, sequence (Q14790 217-374 limits assumed, one chain of several): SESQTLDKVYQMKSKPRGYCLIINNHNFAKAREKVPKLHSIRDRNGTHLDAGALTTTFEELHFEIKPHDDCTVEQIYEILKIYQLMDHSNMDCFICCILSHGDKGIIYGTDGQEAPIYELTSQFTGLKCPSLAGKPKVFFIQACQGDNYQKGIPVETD

caspase-7 = biological target: T2, caspase-7 (Homo sapiens, UniProt P55210); conditions: reported, Garcia-Calvo et al. 1998; cited from earlier work
T2 sequence (P55210 24-198 limits assumed): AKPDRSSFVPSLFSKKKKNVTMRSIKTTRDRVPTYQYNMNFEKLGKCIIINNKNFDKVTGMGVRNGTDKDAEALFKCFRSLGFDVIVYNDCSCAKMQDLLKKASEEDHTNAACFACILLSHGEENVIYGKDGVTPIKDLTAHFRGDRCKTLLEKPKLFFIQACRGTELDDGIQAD
T2 sequence (P55210 207-303 limits assumed): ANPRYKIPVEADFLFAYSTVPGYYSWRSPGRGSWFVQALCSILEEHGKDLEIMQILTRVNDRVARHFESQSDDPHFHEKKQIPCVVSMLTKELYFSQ

Caspase-4 = biological target: T3, Caspase-4 (Homo sapiens, UniProt P49662); conditions: Garcia-Calvo et al. 1998; cited from earlier work
T3 sequence (P49662 81-270 limits assumed): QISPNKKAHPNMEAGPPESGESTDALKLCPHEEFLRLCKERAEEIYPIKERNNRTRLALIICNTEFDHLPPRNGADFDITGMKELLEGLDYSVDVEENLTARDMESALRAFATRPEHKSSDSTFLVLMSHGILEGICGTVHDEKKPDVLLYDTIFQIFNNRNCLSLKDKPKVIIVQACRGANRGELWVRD
T3 sequence (P49662 290-377 limits assumed): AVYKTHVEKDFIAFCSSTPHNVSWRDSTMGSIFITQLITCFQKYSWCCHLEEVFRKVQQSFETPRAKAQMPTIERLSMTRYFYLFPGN

[1] = test system: all other group II and group III caspases except caspase-8; conditions: group II and group III caspases other than caspase-8; cited from earlier work
Caspase-5 = biological target: T4, Caspase-5 (Homo sapiens, UniProt P51878); conditions: Garcia-Calvo et al. 1998; cited from earlier work
T4 sequence (P51878 137-327 limits assumed): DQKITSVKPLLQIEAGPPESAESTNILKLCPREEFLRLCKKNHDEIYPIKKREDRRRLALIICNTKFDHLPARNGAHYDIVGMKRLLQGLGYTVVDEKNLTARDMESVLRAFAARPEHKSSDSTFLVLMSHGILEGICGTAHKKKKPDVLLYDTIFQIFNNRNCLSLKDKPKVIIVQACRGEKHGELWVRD
T4 sequence (P51878 347-434 limits assumed): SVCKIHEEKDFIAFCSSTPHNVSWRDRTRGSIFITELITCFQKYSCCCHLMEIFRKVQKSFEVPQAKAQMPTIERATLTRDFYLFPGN

[2] = biological target: T5, Ac-DEVD-aminoemethylcoumarin
T5 chain: DEVD

Question: For “Ac-YVAD-CHO: tetrapeptide aldehyde inhibitor, SEQ ID NO: 4”, which “inhibitory potency against group III caspases (in words)” value (group III caspases) is on record?
Answer: modest inhibitory potency

Question: What about the “inhibitory potency against caspase-1 (in words)” value (caspase-1) of the same molecule?
Answer: good inhibitory potency

Question: For “acetyl-Asp-Glu-Val-Asp-CHO [Ac-DEVD-CHO]”, which Ki (caspase-8) is on record?
Answer: 0.92 nM

Question: What about the Ki (caspase-1) of the same molecule?
Answer: 18 nM

Question: What about the Ki (caspase-7) of the same molecule?
Answer: 1.6 nM

Question: Which results are given for “AcWEHD-CHO (Ac-WEHD-aldehyde; SMILES CC(=O)N[C@@H](Cc1c[nH]c2ccccc12)C(=O)N[C@@H](CCC(=O)O)C(=O)N[C@@H](Cc1c[nH]cn1)C(=O)N[C@H](C=O)CC(=O)O)”?
Answer: Ki (Caspase-4): 97 nM; Ki (caspase-8): 21 nM; inhibition of all other group II and group III caspases except caspase-8 (in words) [1]: poor inhibitor; Ki (Caspase-5): 43 nM; Ki (caspase-1): 0.056 nM

B1: Triple mutant caspase-8 (residues 233-479; Lys to Arg at residues 246, 250 and 253; Pro370 and Val371 removed) (protein)
chain: RGYCLIINNHNFARARERVPRLHSIRDRNGTHLDAGALTTTFEELHFEIKPHDDCTVEQIYEILKIYQLMDHSNMDCFICCILSHGDKGIIYGTDGQEAPIYELTSQFTGLKCPSLAGKPKVFFIQACQGDNYQKGIPVETDSEEQPYLEMDLSSPQTRYIPDEADFLLGMATVNNCVSYRNPAEGTWYIQSLCQSLRERCPRGDDILTILTEVNYEVSNKDDKKNMGKQMPQPTFTLRKKLVFPSD
Question: Which kcat/Km [2] does the source give for B1 here?
Answer: both enzymes appear to be indistinguishable, yielding a kcat/Km of 1×10^5 Ml-s^1-^1

B2: Wild-type caspase-8 (protein)
chain 1: RGYCLIINNHNFAKAREKVPKLHSIRDRNGTHLDAGALTTTFEELHFEIKPHDDCTVEQIYEILKIYQLMDHSNMDCFICCILSHGDKGIIYGTDGQEAPIYELTSQFTGLKCPSLAGKPKVFFIQACQGDNYQKGIPVETD
chain 2: LSSPQTRYIPDEADFLLGMATVNNCVSYRNPAEGTWYIQSLCQSLRERCPRGDDILTILTEVNYEVSNKDDKKNMGKQMPQPTFTLRKKLVFPSD
Question: With B2 as the molecule, how does the kcat/Km [2] read?
Answer: both enzymes appear to be indistinguishable, yielding a kcat/Km of 1×10^5 Ml-s^1-^1
